What was measured:
[1] = molecular target: T1, hNotch2 H385N AL 388-89 SN mutant, full length, on transfected cells (human, UniProt Q04721 26-2471); test: FACS on transfected cells
T1 construct: also called mutant hNotch2 in which certain EGF10 residues have been mutated to hNotch1 residues
Procedure: A comparison analysis of the EGF10 regions of human Notch1, Notch2, and Notch4 and the EGF9 region of human Notch3 (the equivalent of EGF10 in the other Notch receptors) was performed to determine likely binding sites for 59R1 (FIG. 14A). As a result of the analysis, several point mutants were created within full-length Notch2, converting residues within EGF10 to the corresponding amino acids in human Notch 1. Also, conversely, point mutations were made in hNotch1 EGF10 converting residues to the corresponding hN2 residues. Mutants in full-length Notch sequences were generated by QuikChange® mutagenesis (Stratagene) and verified by sequencing. Binding to the mutants was determined by FACS analysis (FIGS. 14B and 14C). 59R1 was detected by PE-conjugated goat anti-human Fc gamma specific antibody (Jackson Immunochemicals, #109-116-170). […] The corresponding residues in hNotch3 are histidine 361, alanine 364, and isoleucine 365.

[2] = molecular target: T2, human Notch4, full length, on transfected cells (human, UniProt Q99466 24-2003); test: FACS on HEK-293 cells transiently transfected with hNotch4 and GFP
T2 construct: also called hNotch4
T2 sequence (Q99466 24-2003 limits assumed): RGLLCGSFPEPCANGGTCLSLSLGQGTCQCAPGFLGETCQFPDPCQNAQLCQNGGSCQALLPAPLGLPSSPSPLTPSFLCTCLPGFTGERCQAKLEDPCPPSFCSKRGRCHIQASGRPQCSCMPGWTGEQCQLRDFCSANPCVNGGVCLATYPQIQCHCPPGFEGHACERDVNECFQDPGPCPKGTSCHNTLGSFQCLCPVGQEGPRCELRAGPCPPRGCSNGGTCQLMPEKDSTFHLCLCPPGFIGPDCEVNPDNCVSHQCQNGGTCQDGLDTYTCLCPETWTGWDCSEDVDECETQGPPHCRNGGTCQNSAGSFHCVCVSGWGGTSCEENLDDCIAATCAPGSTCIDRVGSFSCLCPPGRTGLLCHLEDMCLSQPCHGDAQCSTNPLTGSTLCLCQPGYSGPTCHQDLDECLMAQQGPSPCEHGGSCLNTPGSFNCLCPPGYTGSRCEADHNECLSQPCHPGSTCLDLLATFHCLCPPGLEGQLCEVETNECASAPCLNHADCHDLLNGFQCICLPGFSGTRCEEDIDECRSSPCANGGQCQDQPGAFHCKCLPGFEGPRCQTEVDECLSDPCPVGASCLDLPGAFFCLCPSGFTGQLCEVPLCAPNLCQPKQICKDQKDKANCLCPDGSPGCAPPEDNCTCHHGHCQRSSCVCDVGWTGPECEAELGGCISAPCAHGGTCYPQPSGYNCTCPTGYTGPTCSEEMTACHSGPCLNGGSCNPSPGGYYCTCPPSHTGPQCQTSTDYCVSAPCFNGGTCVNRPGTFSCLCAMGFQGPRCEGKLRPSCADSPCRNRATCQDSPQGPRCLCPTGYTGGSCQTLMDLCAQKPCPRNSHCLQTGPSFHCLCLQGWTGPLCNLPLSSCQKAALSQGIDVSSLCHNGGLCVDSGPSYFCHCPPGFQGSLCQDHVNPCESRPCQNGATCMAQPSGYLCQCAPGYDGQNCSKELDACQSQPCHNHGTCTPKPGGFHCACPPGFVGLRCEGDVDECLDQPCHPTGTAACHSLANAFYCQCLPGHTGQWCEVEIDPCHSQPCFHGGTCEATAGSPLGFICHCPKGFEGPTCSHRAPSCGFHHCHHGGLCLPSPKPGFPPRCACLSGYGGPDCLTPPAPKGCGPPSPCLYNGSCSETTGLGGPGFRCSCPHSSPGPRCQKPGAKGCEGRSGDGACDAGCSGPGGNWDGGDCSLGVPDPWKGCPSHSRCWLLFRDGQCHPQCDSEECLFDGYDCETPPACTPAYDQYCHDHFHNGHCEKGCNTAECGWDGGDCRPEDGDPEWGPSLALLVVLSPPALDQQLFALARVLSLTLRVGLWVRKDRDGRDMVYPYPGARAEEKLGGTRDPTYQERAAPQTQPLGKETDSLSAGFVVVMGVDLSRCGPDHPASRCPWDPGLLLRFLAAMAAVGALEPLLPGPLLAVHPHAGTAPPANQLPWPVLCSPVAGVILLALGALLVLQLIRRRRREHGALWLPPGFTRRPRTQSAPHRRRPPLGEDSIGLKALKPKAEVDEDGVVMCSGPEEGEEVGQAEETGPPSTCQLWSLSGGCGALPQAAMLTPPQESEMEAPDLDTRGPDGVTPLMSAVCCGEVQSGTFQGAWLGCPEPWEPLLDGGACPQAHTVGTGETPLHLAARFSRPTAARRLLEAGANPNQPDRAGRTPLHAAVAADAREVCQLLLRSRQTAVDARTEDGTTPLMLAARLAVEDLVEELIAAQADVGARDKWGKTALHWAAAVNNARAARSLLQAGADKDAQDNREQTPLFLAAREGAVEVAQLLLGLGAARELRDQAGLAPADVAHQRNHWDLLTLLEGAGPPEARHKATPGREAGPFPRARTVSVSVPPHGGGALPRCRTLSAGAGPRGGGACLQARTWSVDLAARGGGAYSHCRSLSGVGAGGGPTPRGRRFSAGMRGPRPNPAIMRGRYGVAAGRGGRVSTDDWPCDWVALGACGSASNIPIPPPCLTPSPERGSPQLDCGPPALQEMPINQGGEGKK
Procedure: The ability of the 59R1 IgG2 antibody to cross-react with other Notch receptors was determined by FACS assay using HEK-293 cells transiently transfected with the human Notch1, Notch2. Notch3 or Notch4 expression plasmid and green fluorescent protein (GFP) as a transfection control. GFP positive cells indicated expression of the transgene. The 59R1 IgG2 was added to the cells at 2 μg/ml and detected by PE-conjugated goat anti-human Fc gamma specific (Jackson Immunochemicals). All Notch constructs were full length.

[3] = molecular target: T3, recombinant mouse Notch3 (EGF9-14) (mouse, UniProt Q61982 352-581); test: Biacore 2000 SPR; Notch protein amine-coupled to CM5 chip, antibody 1-100 nM injected
T3 construct: domain: EGF9-14; also called mNotch3; m-Notch3
T3 sequence (looked up): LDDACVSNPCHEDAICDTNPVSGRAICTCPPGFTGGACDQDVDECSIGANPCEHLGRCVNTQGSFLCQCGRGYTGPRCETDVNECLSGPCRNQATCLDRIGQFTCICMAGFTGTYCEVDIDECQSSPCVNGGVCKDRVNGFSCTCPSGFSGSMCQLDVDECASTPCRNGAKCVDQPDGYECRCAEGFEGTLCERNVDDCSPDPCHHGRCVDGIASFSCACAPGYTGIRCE
Procedure: The affinities for human and mouse Notch1, Notch2, Notch3, and Notch4 were determined using a Biacore 2000 instrument. Briefly, recombinant human and mouse Notch proteins (EGF10-15 for Notch1, 2, & 4; EGF9-14 for Notch3) were immobilized on a CM5 chip using standard amine based chemistry (NHS/EDC). For hNotch2. EGF1-12 was also tested for binding. Different antibody concentrations (1-100 nM) were injected over the protein surfaces and kinetic data were collected over time. The data was fit using the simultaneous global fit equation to yield dissociation constants (KD, nM) for each Notch (Table 3).

T1 sequence (Q04721 26-2471 H385N/A388S/L389N limits assumed): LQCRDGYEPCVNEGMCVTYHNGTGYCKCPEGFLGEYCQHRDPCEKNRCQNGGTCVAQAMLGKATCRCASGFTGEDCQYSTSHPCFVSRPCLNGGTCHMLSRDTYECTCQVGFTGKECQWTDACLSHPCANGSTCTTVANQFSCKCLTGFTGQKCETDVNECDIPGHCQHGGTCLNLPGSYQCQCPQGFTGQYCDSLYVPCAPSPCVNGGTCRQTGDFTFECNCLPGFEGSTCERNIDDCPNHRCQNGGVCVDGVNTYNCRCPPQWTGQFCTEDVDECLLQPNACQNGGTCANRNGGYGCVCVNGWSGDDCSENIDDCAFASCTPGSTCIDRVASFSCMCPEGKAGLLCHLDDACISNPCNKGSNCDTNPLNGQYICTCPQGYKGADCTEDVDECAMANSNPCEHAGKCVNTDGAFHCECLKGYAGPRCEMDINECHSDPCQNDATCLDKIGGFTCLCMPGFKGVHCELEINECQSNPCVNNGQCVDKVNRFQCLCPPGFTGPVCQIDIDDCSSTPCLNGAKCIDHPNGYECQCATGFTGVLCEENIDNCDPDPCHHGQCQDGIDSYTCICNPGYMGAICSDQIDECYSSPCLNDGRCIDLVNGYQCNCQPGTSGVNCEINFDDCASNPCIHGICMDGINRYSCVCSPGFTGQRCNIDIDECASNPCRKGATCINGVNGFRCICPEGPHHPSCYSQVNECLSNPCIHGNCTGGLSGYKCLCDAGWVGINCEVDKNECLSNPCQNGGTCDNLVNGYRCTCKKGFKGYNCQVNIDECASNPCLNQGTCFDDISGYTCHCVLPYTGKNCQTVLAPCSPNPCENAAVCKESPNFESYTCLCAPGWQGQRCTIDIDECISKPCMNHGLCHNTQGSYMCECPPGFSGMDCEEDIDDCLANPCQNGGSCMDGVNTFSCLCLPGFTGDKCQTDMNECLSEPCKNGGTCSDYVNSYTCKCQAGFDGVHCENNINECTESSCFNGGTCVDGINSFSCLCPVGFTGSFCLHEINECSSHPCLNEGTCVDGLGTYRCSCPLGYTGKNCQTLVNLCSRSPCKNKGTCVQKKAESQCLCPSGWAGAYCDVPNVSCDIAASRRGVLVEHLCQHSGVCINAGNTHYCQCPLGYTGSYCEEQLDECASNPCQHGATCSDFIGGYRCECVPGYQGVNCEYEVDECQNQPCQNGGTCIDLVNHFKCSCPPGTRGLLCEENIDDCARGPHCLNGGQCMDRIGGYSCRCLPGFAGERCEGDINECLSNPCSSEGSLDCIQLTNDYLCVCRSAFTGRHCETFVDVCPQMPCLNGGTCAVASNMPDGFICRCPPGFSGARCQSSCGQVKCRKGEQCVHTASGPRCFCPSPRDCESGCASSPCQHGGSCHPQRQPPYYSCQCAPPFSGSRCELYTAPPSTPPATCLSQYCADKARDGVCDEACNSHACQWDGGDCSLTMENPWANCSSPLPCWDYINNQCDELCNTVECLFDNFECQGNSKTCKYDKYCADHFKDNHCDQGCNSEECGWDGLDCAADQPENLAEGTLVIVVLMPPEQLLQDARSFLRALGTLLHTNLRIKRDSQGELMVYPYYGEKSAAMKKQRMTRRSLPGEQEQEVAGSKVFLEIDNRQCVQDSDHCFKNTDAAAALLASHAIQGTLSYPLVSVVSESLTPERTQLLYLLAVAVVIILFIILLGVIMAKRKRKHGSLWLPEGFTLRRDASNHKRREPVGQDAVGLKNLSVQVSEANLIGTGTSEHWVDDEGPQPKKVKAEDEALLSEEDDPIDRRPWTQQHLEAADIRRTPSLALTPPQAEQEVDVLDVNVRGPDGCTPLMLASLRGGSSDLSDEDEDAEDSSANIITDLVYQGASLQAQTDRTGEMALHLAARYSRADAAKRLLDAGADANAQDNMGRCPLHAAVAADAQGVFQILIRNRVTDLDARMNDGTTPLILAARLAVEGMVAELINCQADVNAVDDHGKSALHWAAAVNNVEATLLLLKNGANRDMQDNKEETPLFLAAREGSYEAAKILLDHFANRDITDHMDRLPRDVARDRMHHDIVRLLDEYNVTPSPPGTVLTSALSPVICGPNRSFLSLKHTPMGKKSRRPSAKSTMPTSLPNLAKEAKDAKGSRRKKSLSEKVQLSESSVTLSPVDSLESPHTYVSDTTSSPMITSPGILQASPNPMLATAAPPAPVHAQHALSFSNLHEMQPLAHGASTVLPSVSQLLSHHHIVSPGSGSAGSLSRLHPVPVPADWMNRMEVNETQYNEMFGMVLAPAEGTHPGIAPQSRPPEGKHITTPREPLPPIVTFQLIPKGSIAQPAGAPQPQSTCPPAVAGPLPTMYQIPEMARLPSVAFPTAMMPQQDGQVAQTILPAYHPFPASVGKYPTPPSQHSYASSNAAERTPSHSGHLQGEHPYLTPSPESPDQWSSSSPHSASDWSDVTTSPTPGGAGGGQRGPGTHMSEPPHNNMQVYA

B1: 59R1 IgG2 antibody (antibody, V domains shown)
VH: QVQLVESGGGLVQPGGSLRLSCAASGFTFSSSGMSWVRQAPGKGLEWVSVIASSGSNTYYADSVKGRFTISRDNSKNTLYLQMNSLRAEDTAVYYCARGIFFAIWGQGTLVTVSS
VL: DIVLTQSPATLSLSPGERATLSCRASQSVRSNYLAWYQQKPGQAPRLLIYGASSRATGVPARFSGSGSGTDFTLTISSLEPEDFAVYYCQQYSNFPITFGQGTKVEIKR
notes: Human IgG2/kappa made in CHO cells; also called anti-Notch2/3 antibody 59R1
B1 was tested, and the binding result [1] was “no binding”, the binding result [2] was “no binding (tested: 2 ug/ml)” and the Kd [3] was 130 pM.

Reference: US20130260455A1 (ONCOMED PHARMACEUTICALS, published 2013)
